From patent US20250283871A1, “COMPOSITIONS AND METHODS FOR MODULATING THE INTERACTION BETWEEN SS18-SSX FUSION ONCOPROTEIN AND NUCLEOSOMES” (Dana-Farber Cancer Institute, Inc., priority 2020, published 2025)

What was measured:
[1] = target: TNR6B_HUMAN Trinucleotide repeat-containing gene 6B protein (human) (UniProt Q9UPQ9); test: anti-SMARCA4 (BRG1) IP, mass spectrometry, HEK-293T cells
[2] = target: UCRIL HUMAN Putative cytochrome b-c1 complex subunit Rieske-like protein 1 (human) (UniProt P0C7P4); test: as above
[3] = target: UBC_HUMAN Polyubiquitin-C (human) (UniProt P0CG48); test: as above
[4] = target: TSP1_HUMAN Thrombospondin-1 (human) (UniProt P07996); test: as above
[5] = target: XRN2_HUMAN 5'-3' exoribonuclease 2 (human) (UniProt Q9H0D6); test: as above
[6] = target: YLPM1_HUMAN Isoform 4 of YLP motif-containing protein 1 (human) (UniProt P49750); test: as above
[7] = target: VIME_HUMAN Vimentin (human) (UniProt P08670); test: as above
[8] = target: UBP2L_HUMAN Isoform 5 of Ubiquitin-associated protein 2-like (human) (UniProt Q14157); test: as above
[9] = target: URB2_HUMAN Unhealthy ribosome biogenesis protein 2 homolog (human) (UniProt Q14146); test: as above
[10] = target: QCR2_HUMAN Cytochrome b-c1 complex subunit 2, mitochondrial (human) (UniProt P22695); test: as above
[11] = target: ZC11A_HUMAN Zinc finger CCCH domain-containing protein 11A (human) (UniProt O75152); test: as above
[12] = target: ZN326_HUMAN DBIRD complex subunit ZNF326 (human) (UniProt Q5BKZ1); test: as above
[13] = target: TRA2B_HUMAN Transformer-2 protein homolog beta (human) (UniProt P62995); test: as above
[14] = target: YLPM1_HUMAN Isoform 4 of YLP motif-containing protein 1 (human) (UniProt P49750); test: anti-SMARCA4 (BRG1) IP, mass spectrometry, Aska-SS cells
[15] = target: VIME_HUMAN Vimentin (human) (UniProt P08670); test: as above
[16] = target: QCR2_HUMAN Cytochrome b-c1 complex subunit 2, mitochondrial (human) (UniProt P22695); test: as above
[17] = target: TRA2B_HUMAN Transformer-2 protein homolog beta (human) (UniProt P62995); test: as above
[18] = target: TNR6B_HUMAN Trinucleotide repeat-containing gene 6B protein (human) (UniProt Q9UPQ9); test: anti-SMARCA4 (BRG1) IP, mass spectrometry, human fibroblasts
[19] = target: UCRIL HUMAN Putative cytochrome b-c1 complex subunit Rieske-like protein 1 (human) (UniProt P0C7P4); test: as above
[20] = target: UBC_HUMAN Polyubiquitin-C (human) (UniProt P0CG48); test: as above
[21] = target: XRN2_HUMAN 5'-3' exoribonuclease 2 (human) (UniProt Q9H0D6); test: as above
[22] = target: YLPM1_HUMAN Isoform 4 of YLP motif-containing protein 1 (human) (UniProt P49750); test: as above
[23] = target: VIME_HUMAN Vimentin (human) (UniProt P08670); test: as above
[24] = target: UBP2L_HUMAN Isoform 5 of Ubiquitin-associated protein 2-like (human) (UniProt Q14157); test: as above
[25] = target: URB2_HUMAN Unhealthy ribosome biogenesis protein 2 homolog (human) (UniProt Q14146); test: as above
[26] = target: QCR2_HUMAN Cytochrome b-c1 complex subunit 2, mitochondrial (human) (UniProt P22695); test: as above
[27] = target: ZC11A_HUMAN Zinc finger CCCH domain-containing protein 11A (human) (UniProt O75152); test: as above
[28] = target: ZN326_HUMAN DBIRD complex subunit ZNF326 (human) (UniProt Q5BKZ1); test: as above
[29] = target: TRA2B_HUMAN Transformer-2 protein homolog beta (human) (UniProt P62995); test: as above

NSAF [1]: 3.4e-05
NSAF [2]: 0
NSAF [3]: 9.09e-05
NSAF [4]: 0
NSAF [5]: 6.55e-05
NSAF [6]: 0.000116
NSAF [7]: 0
NSAF [8]: 5.64e-05
NSAF [9]: 4.08e-05
NSAF [10]: 0
NSAF [11]: 7.68e-05
NSAF [12]: 0.000749
NSAF [13]: 0
NSAF [14]: 0
NSAF [15]: 0
NSAF [16]: 0
NSAF [17]: 0
NSAF [18]: 6.92e-05
NSAF [19]: 0.000224
NSAF [20]: 9.25e-05
NSAF [21]: 0
NSAF [22]: 0.000266
NSAF [23]: 0.000136
NSAF [24]: 5.74e-05
NSAF [25]: 0
NSAF [26]: 0.00014
NSAF [27]: 0
NSAF [28]: 0
NSAF [29]: 0.00022
Substance: SMCA4_HUMAN Transcription activator BRG1 (from UniProt P51532 1-1647) (enzyme)
